{
  "source": "patent US20150368301A1",
  "key": {"[1]": {"target": "Phosphorylated Nox1 peptide (pNox1, KLKT*QKIYF)", "experiment": "ITC, pNox1 peptide injected into NoxA1 AD peptide, single site model, n=3, 25° C."}, "[2]": {"target": "Phosphorylated Nox1 peptide (pNox1, KLKT*QKIYF)", "experiment": "ITC, phosphorylated versus unphosphorylated Nox1 peptide"}, "[3]": {"target": "Phosphorylated Nox1 peptide (pNox1, KLKT*QKIYF)", "experiment": "ITC, pNox1 peptide injected into NoxA1 AD peptide, single site model, n=3, 25° C.; phosphorylated Nox1 peptide (pNox1, T429)"}},
  "data": [
    {"substance": "NoxA1 activation domain (AD) peptide (…)", "values": [
      {"measurement": "stoichiometry", "setting": "[1]", "result": 0.86},
      {"measurement": "fold increase of association against the unphosphorylated Nox1 peptide", "setting": "[2]", "result": "> 100", "unit": "fold"},
      {"measurement": "Kd", "setting": "[3]", "result": 1500, "unit": "nM"}
    ]}
  ]
}
